Measured values as given in paper doi:10.1101/780452.

Molecular target: BSA-Man (glycoprotein bearing 12 glycosylated sites) (bovine (from the name BSA)), P02769
Test: SPR
Conditions: remark: other sources report otherwise

Sequence of BSA-Man (glycoprotein bearing 12 glycosylated sites) (bovine (from the name BSA)), P02769 (P02769 25-607): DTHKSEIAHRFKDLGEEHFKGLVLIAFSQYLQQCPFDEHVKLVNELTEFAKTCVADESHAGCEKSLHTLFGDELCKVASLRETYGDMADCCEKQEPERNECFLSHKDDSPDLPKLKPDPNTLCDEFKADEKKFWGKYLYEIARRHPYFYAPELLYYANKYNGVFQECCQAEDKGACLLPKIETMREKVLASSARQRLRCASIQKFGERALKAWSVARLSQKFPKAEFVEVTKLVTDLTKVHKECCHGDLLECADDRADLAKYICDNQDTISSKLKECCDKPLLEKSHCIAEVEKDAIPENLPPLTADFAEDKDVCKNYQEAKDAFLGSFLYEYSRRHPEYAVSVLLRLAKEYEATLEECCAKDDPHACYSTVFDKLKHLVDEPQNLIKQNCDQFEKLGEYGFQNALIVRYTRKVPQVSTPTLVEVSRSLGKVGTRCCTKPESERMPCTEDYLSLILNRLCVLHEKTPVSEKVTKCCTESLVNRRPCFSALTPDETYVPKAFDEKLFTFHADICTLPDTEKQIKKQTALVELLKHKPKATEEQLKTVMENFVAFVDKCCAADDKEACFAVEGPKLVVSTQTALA

Kd: 3.74 µM
B1: DC-SIGN ECD (construct without StreptagII), Q9NNX6 59-404 (domain or fragment)
chain: QVSKVPSSISQEQSRQDAIYQNLTQLKAAVGELSEKSKLQEIYQELTQLKAAVGELPEKSKLQEIYQELTRLKAAVGELPEKSKLQEIYQELTWLKAAVGELPEKSKMQEIYQELTRLKAAVGELPEKSKQQEIYQELTRLKAAVGELPEKSKQQEIYQELTRLKAAVGELPEKSKQQEIYQELTQLKAAVERLCHPCPWEWTFFQGNCYFMSNSQRNWHDSITACKEVGAQLVVIKSAEEQNFLQLQSSRSNRFTWMGLSDLNQEGTWQWVDGSPLLPSFKQYWNRGEPNNVGEEDCAEFSGNGWNDDKCNLAKFWICKKSAASCSRDEEQFLSPAPATPNPPPA
modifications: here or on the partner: 12 glycosylated sites (mannose glycans, up to 12 glycans displayed)
